Experiments:
1433b_human YWHAB = 1433b_human YWHAB (UniProt P31946)
1433e_human YWHAE = 1433e_human YWHAE (UniProt P62258)
1433g_human YWHAG = 1433g_human YWHAG (UniProt P61981)
1433f_human YWHAH = 1433f_human YWHAH (UniProt Q04917)
1433t_human YWHAQ = 1433t_human YWHAQ (UniProt P27348)
1433z_human YWHAZ = 1433z_human YWHAZ (UniProt P63104)
UniProt P63104, sequence (P63104 whole entry): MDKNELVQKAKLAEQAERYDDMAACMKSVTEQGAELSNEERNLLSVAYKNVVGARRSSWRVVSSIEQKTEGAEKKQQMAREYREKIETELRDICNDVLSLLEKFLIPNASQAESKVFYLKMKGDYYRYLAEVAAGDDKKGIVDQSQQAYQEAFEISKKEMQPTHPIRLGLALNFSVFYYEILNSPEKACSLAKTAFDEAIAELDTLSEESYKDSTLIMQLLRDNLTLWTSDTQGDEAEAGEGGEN

UniProt P62258, sequence (P62258 whole entry): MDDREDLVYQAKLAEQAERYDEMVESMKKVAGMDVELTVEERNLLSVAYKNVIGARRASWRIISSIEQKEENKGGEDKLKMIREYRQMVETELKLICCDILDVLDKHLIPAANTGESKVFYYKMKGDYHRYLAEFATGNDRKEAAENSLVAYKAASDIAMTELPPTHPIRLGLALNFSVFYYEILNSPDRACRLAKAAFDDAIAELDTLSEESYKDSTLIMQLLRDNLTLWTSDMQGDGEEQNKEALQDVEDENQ
UniProt P31946, sequence (P31946 whole entry): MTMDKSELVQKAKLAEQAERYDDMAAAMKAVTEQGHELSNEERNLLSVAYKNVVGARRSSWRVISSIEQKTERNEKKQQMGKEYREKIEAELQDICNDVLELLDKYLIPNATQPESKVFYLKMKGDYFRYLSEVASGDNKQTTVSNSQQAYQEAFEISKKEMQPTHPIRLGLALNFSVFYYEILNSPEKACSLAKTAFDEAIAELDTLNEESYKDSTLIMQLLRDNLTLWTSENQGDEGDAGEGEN
UniProt P61981, sequence (P61981 whole entry): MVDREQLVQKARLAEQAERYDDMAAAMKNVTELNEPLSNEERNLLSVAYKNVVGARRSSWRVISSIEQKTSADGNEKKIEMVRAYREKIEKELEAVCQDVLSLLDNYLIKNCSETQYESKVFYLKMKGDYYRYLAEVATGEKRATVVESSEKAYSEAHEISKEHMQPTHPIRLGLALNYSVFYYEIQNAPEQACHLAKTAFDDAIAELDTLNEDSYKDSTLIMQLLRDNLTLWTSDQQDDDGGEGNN
UniProt P27348, sequence (P27348 whole entry): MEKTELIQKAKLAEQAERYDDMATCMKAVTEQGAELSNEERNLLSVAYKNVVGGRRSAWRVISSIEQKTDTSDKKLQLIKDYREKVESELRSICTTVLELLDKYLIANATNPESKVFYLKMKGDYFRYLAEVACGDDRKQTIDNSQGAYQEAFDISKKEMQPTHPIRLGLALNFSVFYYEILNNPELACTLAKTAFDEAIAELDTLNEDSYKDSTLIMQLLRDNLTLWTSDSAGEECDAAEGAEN
UniProt Q04917, sequence (Q04917 whole entry): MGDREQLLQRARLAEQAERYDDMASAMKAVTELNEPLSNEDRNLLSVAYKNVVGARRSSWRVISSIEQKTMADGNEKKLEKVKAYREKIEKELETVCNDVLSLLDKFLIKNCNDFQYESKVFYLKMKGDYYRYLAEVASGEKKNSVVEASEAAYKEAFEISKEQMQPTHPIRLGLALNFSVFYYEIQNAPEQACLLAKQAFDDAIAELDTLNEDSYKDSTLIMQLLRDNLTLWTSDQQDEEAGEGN

Spatacsin (Homo sapiens), Q96JI7 S1955A
effect of a mutation on the interaction (1433b_human YWHAB): decreasing interaction strength | effect of a mutation on the interaction (1433e_human YWHAE): with no effect | effect of a mutation on the interaction (1433g_human YWHAG): decreasing interaction strength | effect of a mutation on the interaction (1433f_human YWHAH): decreasing interaction strength | effect of a mutation on the interaction (1433t_human YWHAQ): decreasing interaction strength | effect of a mutation on the interaction (1433z_human YWHAZ): decreasing interaction strength

Source: IntAct's records for PubMed 36096339
